Source: US20170081412A1 (MITSUBISHI TANABE PHARMA, published 2017)

Experiments:
[1] = biological target: T1, recombinant human IL-6R (human, UniProt P08887 20-365); assay: SPR: antibody captured on an amine-coupled anti-human antibody (GLM chip), recombinant human IL-6R flowed as analyte
T1 construct: The sandwich ELISA used a His-tagged form; also called soluble IL-6R; His-tagged human IL-6R
T1 sequence: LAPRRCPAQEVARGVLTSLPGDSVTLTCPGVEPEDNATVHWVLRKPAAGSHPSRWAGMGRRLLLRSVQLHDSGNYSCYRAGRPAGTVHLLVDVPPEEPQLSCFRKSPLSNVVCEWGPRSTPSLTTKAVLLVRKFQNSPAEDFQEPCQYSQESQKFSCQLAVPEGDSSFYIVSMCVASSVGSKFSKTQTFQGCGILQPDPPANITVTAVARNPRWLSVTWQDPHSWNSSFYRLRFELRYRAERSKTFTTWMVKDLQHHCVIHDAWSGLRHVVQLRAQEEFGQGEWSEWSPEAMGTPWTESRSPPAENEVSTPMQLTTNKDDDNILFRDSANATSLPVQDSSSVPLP
From the text: (§1) To determine the affinity and kinetic parameters of FynomAb binding to human IL-17A and human IL-6R, an anti-human antibody was amine coupled to a GLM chip.

[2] = biological target: T2, recombinant human IL-17A (human, UniProt Q16552 24-155, limits assumed); assay: SPR: antibody captured on an amine-coupled anti-human antibody (GLM chip), recombinant human IL-17A flowed as analyte
T2 construct: In the flow cytometry assay it was biotinylated; also called soluble IL-17A
From the text: as §1

[3] = biological target: T1, recombinant human IL-6R; assay: SPR, binder captured by anti-human antibody on GLM chip, IL-6R as analyte; average of 4 experiments; column head prints nM, value taken as M
From the text: as §1

[4] = biological target: T1, recombinant human IL-6R; assay: SPR (representative sensorgram with fit): antibody captured on an amine-coupled anti-human antibody (GLM chip), recombinant human IL-6R flowed as analyte
From the text: as §1

[5] = biological target: T1, recombinant human IL-6R; assay: as above; remark: listed apart in the source
From the text: as §1

[6] = biological target: T1, recombinant human IL-6R; assay: SPR, binder captured by anti-human antibody on GLM chip, IL-6R as analyte; average of 4 experiments
From the text: as §1

[7] = biological target: T3, human IL-6R on the surface of HEK Blue IL-6 cells (human, UniProt P08887 20-468); assay: flow cytometry: HEK-Blue IL-6 cells (IL-6R+), drug titrated about 0.005-300 nM, detected with anti-human IgG-Alexa488
T3 construct: HEK Blue IL-6 cells (Invivogen); also called cell surface IL-6R; HEK-Blue-IL6 cells (IL6R+)
T3 sequence: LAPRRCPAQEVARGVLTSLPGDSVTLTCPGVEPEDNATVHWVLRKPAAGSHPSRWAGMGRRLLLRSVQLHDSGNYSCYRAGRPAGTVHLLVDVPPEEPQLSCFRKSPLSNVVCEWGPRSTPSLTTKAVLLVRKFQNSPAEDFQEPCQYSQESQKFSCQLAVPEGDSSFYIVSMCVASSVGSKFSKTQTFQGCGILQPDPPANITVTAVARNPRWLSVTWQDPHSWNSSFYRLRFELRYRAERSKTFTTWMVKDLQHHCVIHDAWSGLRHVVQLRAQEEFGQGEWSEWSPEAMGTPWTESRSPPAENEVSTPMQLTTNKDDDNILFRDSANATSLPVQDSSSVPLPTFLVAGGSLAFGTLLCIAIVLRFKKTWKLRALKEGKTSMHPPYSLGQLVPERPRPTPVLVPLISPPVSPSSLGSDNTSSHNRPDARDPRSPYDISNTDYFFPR

[8] = biological target: T1, recombinant human IL-6R; assay: SPR, binder captured by anti-human antibody on GLM chip, IL-6R as analyte; average of 6 experiments
From the text: as §1

[9] = biological target: T1, recombinant human IL-6R; assay: SPR, binder captured by anti-human antibody on GLM chip, IL-6R as analyte; average of 6 experiments; column head prints nM, value taken as M
From the text: as §1

T2 sequence (Q16552 24-155 limits assumed): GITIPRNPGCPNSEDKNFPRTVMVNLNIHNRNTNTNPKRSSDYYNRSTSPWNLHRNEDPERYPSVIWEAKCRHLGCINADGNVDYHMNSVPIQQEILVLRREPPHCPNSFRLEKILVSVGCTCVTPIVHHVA

B1: secukinumab (antibody, human IgG1, kappa, V domains shown)
VH: EVQLVESGGGLVQPGGSLRLSCAASGFTFSNYWMNWVRQAPGKGLEWVAAINQDGSEKYYVGSVKGRFTISRDNAKNSLYLQMNSLRVEDTAVYYCVRDYYDILTDYYIHYWYFDLWGRGTLVTVSS
VL: not shown
B1: no binding [1].

B2: tocilizumab (produced in house in CHO cells) (antibody, human IgG1, kappa)
heavy: not shown
light: not shown
notes: also called parental antibody
B2 was tested, and the binding result [2] was “no binding”, the Kd [3] was 0.417 nM and the Kd [4] was 0.41 nM. For the same binder, the koff [4] was 0.000189 s⁻¹, the kon [4] was 461000 M⁻¹ s⁻¹ and the Kd [5] was 0.467 nM. For the same binder, the koff [5] was 0.000199 s⁻¹, the kon [5] was 427000 M⁻¹ s⁻¹ and the koff [6] was 0.000186 s⁻¹. For the same binder, the kon [6] was 473000 M⁻¹ s⁻¹ and the “EC50 (read off the curve)” value [7] was about 1 nM.

B3: Actemra (commercial tocilizumab) (antibody, human IgG1, kappa)
heavy: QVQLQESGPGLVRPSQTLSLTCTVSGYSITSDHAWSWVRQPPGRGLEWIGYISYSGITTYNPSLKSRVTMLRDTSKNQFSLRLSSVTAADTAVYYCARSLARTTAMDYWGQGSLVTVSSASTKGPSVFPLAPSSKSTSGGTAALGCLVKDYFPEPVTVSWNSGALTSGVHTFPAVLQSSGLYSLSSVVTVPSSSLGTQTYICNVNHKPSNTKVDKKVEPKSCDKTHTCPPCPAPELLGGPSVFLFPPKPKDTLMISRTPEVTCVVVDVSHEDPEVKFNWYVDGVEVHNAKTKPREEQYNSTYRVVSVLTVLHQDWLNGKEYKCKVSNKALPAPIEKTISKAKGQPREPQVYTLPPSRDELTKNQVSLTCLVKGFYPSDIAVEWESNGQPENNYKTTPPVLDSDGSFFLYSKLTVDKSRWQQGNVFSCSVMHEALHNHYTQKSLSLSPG
light: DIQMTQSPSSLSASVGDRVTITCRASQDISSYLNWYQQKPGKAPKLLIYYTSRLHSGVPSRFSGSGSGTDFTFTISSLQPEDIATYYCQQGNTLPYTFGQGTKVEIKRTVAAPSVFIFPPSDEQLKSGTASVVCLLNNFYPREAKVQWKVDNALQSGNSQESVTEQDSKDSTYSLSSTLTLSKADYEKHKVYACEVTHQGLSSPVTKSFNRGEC
notes: also called commercial Actemra; commercial grade Actemra
B3 was tested, and the binding result [2] was “no binding”, the koff [8] was 0.000191 s⁻¹ and the kon [8] was 413000 M⁻¹ s⁻¹. It also gave a Kd [9] of 0.499 nM, a Kd [5] of 0.467 nM and a koff [5] of 0.000195 s⁻¹. It also gave a kon [5] of 417000 M⁻¹ s⁻¹.
